Laboratory results from publication PMC9262625, “Structural and dynamic studies of DNA recognition by NF-κB p50 RHR homodimer using methyl NMR spectroscopy”.

How the values were obtained:
Settings in all cases: protein: recombinant; tags: U-[2H,15N] or ILV methyl labeled; no tag stated; chain copies: 2
[1] = molecular target: T1, p50 RHR homodimer (mouse (murine), UniProt P25799 39-363); assay: NMR (13C methyl HMQC); 1:1; heterogeneous bound conformations; NMR: 20 mM Tris pH 6.8, 150 mM NaCl, 2 mM DTT, 300 K; native gel: 20 mM Tris pH 8.0, 10% glycerol, room temperature, 20 min
T1 sequence (P25799 39-363): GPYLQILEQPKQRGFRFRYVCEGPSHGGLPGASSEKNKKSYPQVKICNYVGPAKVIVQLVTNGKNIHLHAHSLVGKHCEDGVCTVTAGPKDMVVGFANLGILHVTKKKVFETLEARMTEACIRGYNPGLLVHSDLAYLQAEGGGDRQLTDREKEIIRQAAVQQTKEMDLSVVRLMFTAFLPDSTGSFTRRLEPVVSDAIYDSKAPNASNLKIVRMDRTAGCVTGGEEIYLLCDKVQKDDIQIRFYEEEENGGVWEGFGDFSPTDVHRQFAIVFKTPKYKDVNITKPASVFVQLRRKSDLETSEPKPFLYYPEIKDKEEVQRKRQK

[2] = molecular target: T1, p50 RHR homodimer; assay: NMR (13C methyl HMQC); 1:1; split peaks, at least two bound conformers; NMR: 20 mM Tris pH 6.8, 150 mM NaCl, 2 mM DTT, 300 K; native gel: 20 mM Tris pH 8.0, 10% glycerol, room temperature, 20 min
[3] = molecular target: T1, p50 RHR homodimer; assay: NMR (13C methyl HMQC); 1:1; two conformations; NMR: 20 mM Tris pH 6.8, 150 mM NaCl, 2 mM DTT, 300 K; native gel: 20 mM Tris pH 8.0, 10% glycerol, room temperature, 20 min
[4] = molecular target: T1, p50 RHR homodimer; assay: NMR (13C methyl HMQC, CPMG); 1:1; single bound conformation; NMR: 20 mM Tris pH 6.8, 150 mM NaCl, 2 mM DTT, 300 K; native gel: 20 mM Tris pH 8.0, 10% glycerol, room temperature, 20 min
[5] = molecular target: T1, p50 RHR homodimer; assay: EMSA (native gel); 20 uM, 1:1; single band; NMR: 20 mM Tris pH 6.8, 150 mM NaCl, 2 mM DTT, 300 K; native gel: 20 mM Tris pH 8.0, 10% glycerol, room temperature, 20 min
[6] = molecular target: T1, p50 RHR homodimer; assay: NMR (13C methyl HMQC); 1:1; single bound conformation, shifts differ from MHC H2; NMR: 20 mM Tris pH 6.8, 150 mM NaCl, 2 mM DTT, 300 K; native gel: 20 mM Tris pH 8.0, 10% glycerol, room temperature, 20 min

B1: IFN-κB (dsDNA)
DNA 1: GCTGGGAAATTCCAGC
DNA 2: GCTGGAATTTCCCAGC
**Q.** Does B1 bind [1]?
**A.** binds

B2: κB proto (dsDNA)
DNA 1: GCTGGGAATTCCCAGC
DNA 2: GCTGGGAATTCCCAGC
**Q.** Does B2 bind [2]?
**A.** binds

B3: 4xG-10 (4G-10) (dsDNA)
DNA 1: GCTGGGGATCCCCAGC
DNA 2: GCTGGGGATCCCCAGC
**Q.** Does B3 bind [3]?
**A.** binds

B4: H2-κB (dsDNA)
DNA 1: GCTGGGAATCCCCAGC
DNA 2: GCTGGGGATTCCCAGC
**Q.** Does B4 bind [1]?
**A.** binds

B5: Ig-κB (dsDNA)
DNA 1: GCTGGGACTTTCCAGC
DNA 2: GCTGGAAAGTCCCAGC
**Q.** Does B5 bind [1]?
**A.** binds

B6: MHC H2 (dsDNA)
DNA 1: GCTGGGGATTCCCCAGC
DNA 2: GCTGGGGAATCCCCAGC
**Q.** Does B6 bind [4]?
**A.** binds

B7: MHC H2 M2 (dsDNA)
DNA 1: GCTGGGGATTTCCCAGC
DNA 2: GCTGGGAAATCCCCAGC
**Q.** Does B7 bind [5]?
**A.** binds

B8: MHC H2 M1 (dsDNA)
DNA 1: GCTGGGAATTTCCCAGC
DNA 2: GCTGGGAAATTCCCAGC
**Q.** Does B8 bind [6]?
**A.** binds
